A short description of the series: soluble on expression in E. coli; label from the status in PepcDB or PDB records.
Turning to “MSLKANFYKNRVCLNVLAGSVDNAADIYDAAEGHVLVGVLSKNYPDVDTAVEDMKKYSEVTNNAVSVGLGAGDPNQSMMVSLISQHVQPQHINQVFTGVATSRALAGQDKSIVNGLISPTGTVGMVKISTGPLSSRSEDAIVPVETAIAMLKDMGGSSVKYFPMGGLETREEFACVAKACADKDFWLEPTGGIDLENYEEIMQIALDAGVSKIIPHIYSSIIDKATGNTRPEDVKTLLDMTKKLLN”, the “soluble on expression in E. coli” value is on record as “soluble”.
Under “MSLTRIVLPGGAGLVGQNLVARLKARGYTNLVVLDKHEANLDVLRSVHPDITAVFADLAEPGDWARHFEGADVVVMLQAQIGAPTREPFVRNNIDSTRCVLEVIKQHAIPYTVHISSSVVKSVGEDWYTETKREQEAIVLASGIGCVVLRPTLMFGWFDRKHLGWLSRFMQRVPVFPIPGSGRYMRQPLYVGDFCNVIISCIDSRIQGQTFDITGLERIDYIDIIRQIKRVTRARCAIVRIPYGLFHILLKVYALFSKNPPFTADQLKALTAGDEFDVIDWERIFAIRATPFAQAMEETFNDPTYSHIALEEGHHHHHH” stands “soluble”.
Consider “MAARNAGTARPGGPNRTCQFKLVLLGESAVGKSSLVLRFVKGQFHEYQESTIGAAFLTQTVCLDDATIKFEIWDTAGQERYHSLAPMYYRGAQAAIVVYDITNQESFQKAKNWVKELQRQASPNIVMALAGNKADVANKRTVEYEEANAYAEDNALLFMETSAKTSMNVNDIFMAIAKKLPIGPAQGEPTGTVDMNQPQQQQKGSCCK”, for which the “soluble on expression in E. coli” value was “not soluble”.
Regarding “GRYTQIRFDEDIKRPFPELQQEFLSLLRKSVSEAVQGQKAGTFLSGGTDSSTLAGILTEVTGEPAKTYSIGFEATGYDEMHYARIAARHFATDHHEYYVTPDDVVETIPLIASVFDQPFGNASALPAYYCGRMARNDGLDLLLGGDGGDELFGGNVRYAKQYIFSLYDKIPAPLRNYLLSPFILSLPENKGPKLLRKARSYVAQATVPMPHRMETYNLLAHYGFETVFSPELLAKIDTAQPALLIERTYQDVSHARSLINRMLAFDWKFTLADNDFPKVVQACHLAGMEVAFPFVNDEILAFSLALPPEQKLKGTQLRYFFKQALRGFLPDEIITKQKQGFGLPFGVWLQTHRPLREIAADSLSDLKSRNIIRTDFIDQLLDQHLHEHASYHGTMVWLLMMLEYWFKQH”, the “soluble on expression in E. coli” value is on record as “not soluble”.
As for “MKGFCYRCGHEGELLDGLCKICYTHMNPLIEVDNEVHVEVCHMCGSYKRKLWQDPQKRETYEIMEEIAYFGVKDNLKKANKSIDVEIMPQEPRQLPGGKRSRVEIPTVVFAKGRLVGEDNDREEERHITVYLDMVQCPRCSRCMSNYYEGTLQVRAMNRFLNDKERIELDDFVRDEAGKRLNKDRMAFISKYIPQKEGLDYQMGSMGAIRNIASAIKAKYGGKSIETAKLVGVDKDTGKDMYRITVAVRIPEFKLGDILEHKEKIYVVSSLNESRVYMEPVELGDKIALVWNEIDKSAKLIKKGEDCETATVISITPDTITAMDDSNYEIYEYNNTIENVKEGNKIRIFKNEEINRILEIIELEHHHHHH”, the “soluble on expression in E. coli” value was “soluble”.
For “TVEAKNETFAPQHPDQYLSWKATSEQSERVDALAEDPRLVILWAGYPFSRDYNKPRGHAFAVTDVRETLRTGAPKNAEDGPLPMACWSCKSPDVARLIQKDGEDGYFHGKWARGGPEIVNNLGCADCHNTASPEFAKGKPELTLSRPYAARAMEAIGKPFEKAGRFDQQSMVCGQCHVEYYFDGKNKAVKFPWDDGMKVENMEQYYDKIAFSDWTNSLSKTPMLKAEHPEYETWTAGIHGKNNVTCIDCHMPKVQNAEGKLYTDHKIGNPFDNFAQTCANCHTQDKAALQKVVAERKQSINDLKIKVEDQLVHAHFEAKAALDAGATEAEMKPIQDDIRHAQWRWDLAIASHGIHMHAPEEGLRMLGTAMDKAADARTKLARLLATKGITHEIQIPDISTKEKAQQAIGLNMEQIKAEKQDFIKTVIPQWEEQARKNGLLS”, the “soluble on expression in E. coli” value was “soluble”.
Next, “LRTGIDNVLRAKTGGLIVLGYNENMKGIVDGGFYLDCPFSPASLYELAKMDGAIILNEDGTKILYANTQLNPDNAISSNETGIRHRTAERVAKQTGNLVISISQRRNVITLYHGHL”: “soluble”.
Take “MSLRRILHMTEKKKKIGFNIVKNDSTDGHGGFGVGALSLENISPVFVDVLEKTAFVDIGAMHARSTVEKGIKFLTNKDEVPNGKPFWLVWVTIERTATGAYYAGVTACEMTVDREIRRGYKSLPEHVNKMDKSMKRHIMVDHMDESSKKVLGTFLKEHNEAIWNESGEELRRALLSEEGHHHHHH”: the “soluble on expression in E. coli” value is “soluble”.
For “APEAFLNSVLQPFVLPFLQRYPKIQLKLRAADGEIDLFRQGIDVAFKLTDKPDENLVLKEISKTNLVLCASPDYLAQRGMPEHPTQLEQHDCIYLAENDKDNIWSFFKEEAFHSIAVSGRYAVNHSQMRLNGVKAGLGIGIFHDFVVKEALERGEVVEVLSDWMIKSNYHGAVAMQYAQTKYMPARLRVFIGFVNEHLVSKEPTHV”, the “soluble on expression in E. coli” value is recorded as “not soluble”.
Under “MSLMPDKKGYIIDIDGVIGKSVTPIPEGVEGVKKLKELGKKIIFVSNNSTRSRRILLERLRSFGLEVGEDEILVATYATARFIAREKPNAKVFTTGEEGLIEELRLAGLEIVDYDEAEYLVVGSNRKINFELMTKALRACLRGIRYIATNPDRIFPAEDGPIPGTGMIIGALYWMTGREPDVVVGKPSEVIMREALDILGLDAKDVAVVGDQIDVDVAAGKAIGAETVLVLTGVTTRENLDQMIERHGLKPDYVFNSLKDMVEALEGEGHHHHHH” stands “soluble”; under “RSFYNLGMDYKYRFHRFSIQGEAALGISGMAFMNQVLYSPLQDIRLMLVHRYYSHDYWAMFAHSFSEGSSVQNENGWYLAASVNPFNRWTFFVSADLFSFPWWRYRISKASKGVDLLFQADYVPSKTVDMYVNYRYKQKERDVTGTQGKVILPTYHHRLRYRLNYLPCSSLSLRTTVDYNHFHSSGKTAGQGYQLTQTAGWKLPWLPLTTELQGSYFHTDDYDSRIYIYEKGLLYSFYTPSFQGEGIRLAIHFRYDMNKHWTAIAKLGQTTYFDRDEIGSGNDLIRGNKKTDVQMQLRLKF”, “not soluble”.
Regarding “MGSDKIHHHHHHMDLLELKAFVFAVQTGSITQAAFQLGRVQSSVSLRIKQLETELGVELLSRDRGGVRTTARGQILYDYATRILALAQEAKGEVMSPNTGEIVRLGTIETISPDCIDSLVRLLSGFDGMGVDVYVDGALSLVESLREGRIHAAIVGAGFAPPECIRIPLYGEAMVLISSLKYPRIDLVNQIANEIFLVCKKESACSRHLAMLFMEGGFQPARISECGSFSILMSSVVRGMGIALVPLSAVLGSAHEKQVLIHPLSGHFSTFQVEFVCPQPKGRPILERLIEKISQEFVGQKPN”, the “soluble on expression in E. coli” value was “not soluble”.
In the case of “MDLNFKELAEAKKDAILKDLEELIAIDSSEDLENATEEYPVGKGPVDAMTKFLSFAKRDGFDTENFANYAGRVNFGAGDKRLGIIGHMDVVPAGEGWTRDPFKMEIDEEGRIYGRGSADDKGPSLTAYYGMLLLKEAGFKPKKKIDFVLGTNEETNWVGIDYYLKHEPTPDIVFSPDAEYPIINGEQGIFTLEFSFKNDDTKGDYVLDKFKAGIATNVTPQVTRATISGPDLEAVKLAYESFLADKELDGSFEINDESADIVLIGQGAHASAPQVGKNSATFLALFLDQYAFAGRDKNFLHFLAEVEHEDFYGKKLGIFHHDDLMGDLASSPSMFDYEHAGKASLLNNVRYPQGTDPDTMIKQVLDKFSGILDVTYNGFEEPHYVPGSDPMVQTLLKVYEKQTGKPGHEVVIGGGTYGRLFERGVAFGAQPENGPMVMHAANEFMMLDDLILSIAIYAEAIYELTKDEEL”, the “soluble on expression in E. coli” value is “soluble”.
For the sequence “PFEPKIVAFVCTYCTYAGADLAGTSRLNYAPNVRIVRLPCTGRISPMFILKALQKGADSVLVSGCHPGDCHFTAGNYHARRRWTVFRALLSFTGIPEERIRFSWISAAEGAKFAELINEITDDTRKLG”, the “soluble on expression in E. coli” value is “not soluble”.
With “MGHHHHHHSHMAYNKEEKIKSLNRMQYEVTQNNGTEPPFQNEYWDHKEEGLYVDIVSGKPLFTSKDKFDSQCGWPSFTKPIEEEVEEKLDTSHGMIRTEVRSRTADSHLGHVFNDGPGPNGLRYCINSAALRFVPKHKLKEEGYESYLHLFNK”, the “soluble on expression in E. coli” value is “soluble”.
Under “MSKTLDGEPIECEIIDSLKLVNNTMDKIISRGYEKSAIYTPKAYGSVYRLSETNLLSKNEFKDNLLITFMAKKFKKLIRSEKPDLIIGTHPFPMIALSTLKKNFNLHNNESNAYTEHFYKHYTNTINVPPLISVLTDYTTHSTWIQNEIDYYIVGHEYVKELLVFDGVEPSKIRTFGIPLEHHHHHH” stands “not soluble”; under “MTDIQDVISPKLAVAIANPIFPAVDSLLRSGRHISTEHLDNHAFLMDFQNELDGFYRRYNVELIRAPEGFFYLRPKATTLIARSVLSELEMLVGKVLCYLYLSPERLAQQGIFSTQEVYDELLNLADEGKLLKAVNQRSSGSDLDKQKLAEKVRAAIGRLRRLGMIQTVGEQNSGKFTISESVFRFGAEVRSGDDPLESQARLIRDGEAATPDSLALEKQAQLMENDTKSADEIDEEFDGEQELEHHHHHH”, “soluble”.
With “MGSDKIHHHHHHMRKDEIMHIVSCADDNYARHLGGMFVSLLTNMDQEREVKLYVIDGGIKPDNKKRLEETTLKFGVPIEFLEVDTNMYEHAVESSHITKAAYYRISIPDLIKDESIKRMIYIDCDALVLEDISKLWDLDIAPYTVAAVEDAGQHERLKEMNVTDTGKYFNSGIMIIDFESWRKQNITEKVINFINEHPDEDFLVLHDQDALNAILYDQWYELHPRWNAQTYIMLKLKTPSTLLGRKQYNETRENPAIVHFCGGEKPWNSNTKHPYRDEYFHYMSYTKWNTIGNPAINQ”, the “soluble on expression in E. coli” value is reported as “not soluble”.
Consider “MGSDKIHHHHHHMNQATRNVLWMTGIKKSFSGVPALWGVDFELKAGEIHALVGENGAGKSTLIKIMTGAYRRDSGVMEYDQKTVAFENPIQAQAAGIVAVYQEIQLVGLRTVAENIFLSREPNRFGIIDRRAMNARAADILKRLGLHIDPHSVVGSLNIAHRQMVAIARAISFGARVLILDEPTSSLTKTEVSVLFDVMRRLKSEGTSIVYISHRFEELYTVCDRVTVLRDGRNIVTRSLSMLTRLELVCFMLGRKPEEVSKRVTAFARQSQNMLGQPVLLQAEALKYKKRLNGVSIEVQHGEIVGLAGLLGSGRSETVRALFGAEPLEGGTVKLEGSLLSLRDPHDAIDAGIAFLSEDRKADGIIPELSVRENLTLAALPNLTQWGIVSKKRQSELALRFMERLDIKAASIEQKIRFYTNSGCNYDSSDRGSFLLYPLYAFRPSYRCSRRQRGGCTACGYPCGAREIYSLYN”, for which the “soluble on expression in E. coli” value is “not soluble”.
Next, “MGHHHHHHSHMADVEDGEETCALASHSGSSGSKSGGDKMFSLKKWNAVAMWSWDVECDTCAICRVQVMDACLRCQAENKQEDCVVVWGECNHSFHNCCMSLWVKQNNRCPLCQQDWVVQRIGK”: “not soluble”; “DTILCFGDCRPLHKEAKRWAKSKGIRFLAFEEGYLRPQFITVEEGGVNAYSSLPRDPDFYRKLPDMPAPHVENLKPSTMKRIGHAMWYYLMGWHYRHEFPRYRHHKSFSPWYEARCWVRAYWRKQLYKVTQRKVLPRLMNELDQRYYLAVLQVYNDSQIRNHSNYNDVRDYINEVMYSFSRKAPKESYLVIKHHPMDRGHRLYRPLIKRLSKEYGLDERVIYVHDLPMPELLRHAKAVVTINSTAGISALIHNKPLKVMGNALYDIKGLTYQGHLHQFWQADFKPDMKLFKKFRGYLLVKTQVNGGYY”: “not soluble”.

The record behind these values is the DeepSol protein solubility set.
